Test results published in article PMC5620043, “A general mechanism of ribosome dimerization revealed by single-particle cryo-electron microscopy” (Nature Communications, 2017).

Target: the molecule itself
Experiment: SEC-MALS; SEC-MALLS, Superdex 200 10/300, 100 mM Tris-HCl, 150 mM NaCl, pH 8.0; protein concentrated to about 4 mg/ml; three batches, two with 10% glycerol

B1: HPF^long from L. lactis with N-terminal Strep-tag (natural protein, UniProt A2RIX0 1-185, looked up)
chain: MIKFNIRGENVEVTDAIRAYVEDKIGKLDKYFNDGHEVTAYVNLKVYTEKRAKVEVTLPAKNVTLRAEDTSQDMYSSIDFVEEKLERQIRKYKTRMNRKPRNAVPTGQVFGDEFAPLDTTDEVAEDHVDIVRTKHVALKPMDAEEAVLQMDMLGHDFYVFTDADSNGTHVVYRRTDGRYGLIETE
notes: HPF^long of Lactococcus lactis, 185 residues, calculated monomer mass 21.3 kDa; also called purified HPF^long; source: overexpressed in L. lactis NZ9000, purified on a Strep-tactin Sepharose column
stoichiometry N: 2
